In publication PMC3006384, “Phosphorylation of Mouse Immunity-Related GTPase (IRG) Resistance Proteins Is an Evasion Strategy for Virulent Toxoplasma gondii” (PLoS Biology, 2010):

Target: the molecule itself
Assay: light scattering; GTP-dependent oligomerisation of recombinant Irga6 monitored by conventional light scattering, as described earlier (ref. 16)

B1: recombinant wt Irga6 (bacterially expressed, from pGEX-4T-2-Irga6) (natural protein)
chain: MGQLFSSPKSDENNDLPSSFTGYFKKFNTGRKIISQEILNLIELRMRKGNIQLTNSAISDALKEIDSSVLNVAVTGETGSGKSSFINTLRGIGNEEEGAAKTGVVEVTMERHPYKHPNIPNVVFWDLPGIGSTNFPPNTYLEKMKFYEYDFFIIISATRFKKNDIDIAKAISMMKKEFYFVRTKVDSDITNEADGKPQTFDKEKVLQDIRLNCVNTFRENGIAEPPIFLLSNKNVCHYDFPVLMDKLISDLPIYKRHNFMVSLPNITDSVIEKKRQFLKQRIWLEGFAADLVNIIPSLTFLLDSDLETLKKSMKFYRTVFGVDETSLQRLARDWEIEVDQVEAMIKSPAVFKPTDEETIQERLSRYIQEFCLANGYLLPKNSFLKEIFYLKYYFLDMVTEDAKTLLKEICLRN
notes: Irga6, mouse immunity-related GTPase (IRG) protein; Expressed as N-terminal GST fusion; also called recombinant Irga6
  binding result: binds
